Reference: patent publication US20260265357A1 (NEPHRIS, published 2026)
Residue numbers refer to the chain shown, from its start.

T1: mouse NBL1 (mouse, UniProt Q61477 17-178, limits assumed)
T1 sequence (looked up): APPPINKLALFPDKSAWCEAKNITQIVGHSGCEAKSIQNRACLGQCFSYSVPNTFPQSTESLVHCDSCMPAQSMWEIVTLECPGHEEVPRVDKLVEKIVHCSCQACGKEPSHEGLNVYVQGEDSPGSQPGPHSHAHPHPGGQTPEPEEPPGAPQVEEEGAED

T2: human NBL1 (neuroblastoma suppressor of tumorigenicity 1) (human, UniProt P41271 17-181, limits assumed)
T2 construct: Recombinant human NBL1; also called DAN; DAND1
T2 sequence (looked up): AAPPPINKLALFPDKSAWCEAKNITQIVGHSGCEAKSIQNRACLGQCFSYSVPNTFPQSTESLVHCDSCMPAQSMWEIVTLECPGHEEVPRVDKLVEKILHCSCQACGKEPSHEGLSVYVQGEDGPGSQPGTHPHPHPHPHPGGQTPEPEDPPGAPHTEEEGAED

B1: Antibody YU1019-A12 (antibody, V domains shown)
VH: EVQLLESGPGLVKPSQTLSLTCTVSGGSISSGDYYWSWIRQPPGKGLEWIGYIYYSGSTYYNPSLKSRVTISVDTSKNQFSLKLSSVTAADTAVYYCARGRRLLLFHWGQGTTVTVSS
VL: QSVLTQPPSVSAAPGQKVTISCSGSGSSIGNNYVSWYQQVPGTPPKLLIYDNNKRASGIPDRFSGSKSGTSATLGITGLQTGDEADYYCGTWDNSLSAVVFGGGTKLTVL
B2: Antibody YU1018-D06 (antibody, V domains shown)
VH: QVQLVESGPGLVKPSQTLSLTCTVSGGSISSGGYYWSWIRQHPGKGLEWIGYIYYSGSTYYNPSLKSRVTISVDTSKNQFSLKLSSVTAADTAVYYCARSGAAGIPWFDPWGQGTLVTVSS
VL: B1 VL with G26S, S28N, V40L, P44A, D51E, K54E, A56P, F63L, G75A, N94S
B3: Antibody YU1019-B06 (antibody, V domains shown)
VH: EVQLLESGGGVVQPGRSLRLSCAASGFTFSSYAMHWVRQAPGKGLEWVAVISYDGSNKYYADSVKGRFTISRDNSKNTLYLQMNSLRAEDTAVYYCASPVLRYFDWLPNYWGQGTLVTVSS
VL: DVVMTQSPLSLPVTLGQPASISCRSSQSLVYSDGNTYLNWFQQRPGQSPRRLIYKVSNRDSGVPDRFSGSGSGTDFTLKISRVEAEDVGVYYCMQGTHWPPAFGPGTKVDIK
B4: Antibody YU1018-E07 (antibody, V domains shown)
VH: B3 VH with L116T
VL: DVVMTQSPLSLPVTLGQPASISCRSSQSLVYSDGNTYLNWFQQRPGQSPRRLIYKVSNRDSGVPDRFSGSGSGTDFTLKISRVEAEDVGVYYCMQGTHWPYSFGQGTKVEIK
B5: Antibody YU1018-G01 (antibody, V domains shown)
VH: QVQLVQSGAEVKKPGASVKVSCKASGYTFTSYAMHWVRQAPGQRLEWMGWINAGNGNTKYSQKFQGRVTITRDTSASTAYMELSSLRSEDTAVYYCARGRELLTFDYWGQGTLVTVSS
VL: not shown
B6: Antibody YU1018-D12 (antibody, V domains shown)
VH: EVQLVQSGAEVKKPGASVKVSCKASGYTFTSYGISWVRQAPGQGLEWMGWISAYNGNTNYAQKLQGRVTMTTDTSTSTAYMELRSLRSDDTAVYYCARDVGYSYGIFDYWGQGTLVTVSS
VL: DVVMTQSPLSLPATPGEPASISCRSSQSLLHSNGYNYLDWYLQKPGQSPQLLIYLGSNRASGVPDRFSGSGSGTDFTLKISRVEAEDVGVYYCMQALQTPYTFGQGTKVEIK
B7: Antibody YU1018-D08 (antibody, V domains shown)
VH: QVQLVQSGAEVKKPGSSVKVSCKASGGTFSSYAISWVRQAPGQGLEWMGGIIPIFGTANYAQKFQGRVTITADKSTSTAYMELSSLRSEDTAVYYCARDRYYDSSGYYLMDPWGQGTLVTVSS
VL: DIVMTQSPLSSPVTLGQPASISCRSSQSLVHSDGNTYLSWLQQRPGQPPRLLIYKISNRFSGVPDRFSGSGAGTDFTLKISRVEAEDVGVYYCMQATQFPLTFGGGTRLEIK
B8: Antibody YU1018-E01 (antibody, V domains shown)
VH: QVQLVQSGAEVKKPGASVKVSCKASGYTFTSYGISWVRQAPGRGLEWMGWISAYNGNTNYAQKLQGRVTMTTDTSTSTAYMELRSLRSDDTAVYYCARGPRDGYNDYWGQGTLVTVSS
VL: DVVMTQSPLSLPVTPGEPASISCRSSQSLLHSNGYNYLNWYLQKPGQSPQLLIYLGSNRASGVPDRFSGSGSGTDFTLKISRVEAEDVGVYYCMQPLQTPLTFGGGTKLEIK
B9: Antibody YU1018-E04 (antibody, V domains shown)
VH: QVQLVQSGAEVKKPGESLKISCKGSGYSFTSYWIGWVRQMPGKGLEWMGIIYPGDSDTRYSPSFQGQVTISADKSISTAYLQWSSLKASDTAMYYCARAIVGATSGYWFDPWGQGTLVTVSS
VL: not shown

Molecular target: T1, mouse NBL1
Assay: ELISA, IgG1 format
Protocol: (§1) Naïve human phage display libraries were panned to discover Fabs capable of binding human NBL1 (UniProt ID P41271), and further screened for potential inter species cross reactivity to mouse NBL1 (UniProt ID Q61477) and/or cynomolgus (“cyno”) NBL1 (UniProt ID A0A2K5WIY3). […] Antigen binding of the IgG1 formatted antibodies was tested by ELISA and EC50 values were calculated.

Binding result, binds:
B1
B2
B3
B4
B5
B6
B7
B8
B9

Molecular target: T2, human NBL1 (neuroblastoma suppressor of …)
Assay: ELISA, IgG1 format
Protocol: as §1

Binding result, binds:
B1
B2
B3
B4
B5
B6
B7
B8
B9
